Laboratory results as given in PMC10866937, “Aptamers targeting SARS-CoV-2 nucleocapsid protein exhibit potential anti pan-coronavirus activity”.

Each binder was assayed against MERS-CoV nucleocapsid protein (MERS NP) (MERS-CoV, UniProt K9N4V7 1-411) (assay: not given). Conditions: protein: commercial; label: 5'-FAM in CE (position not restated for aptamers).
GCAGGCAAGGCTCTACTGACCCGTTGCTTGATCGAC (ssDNA) [Seq-7]: binds.

Same assay, conditions: protein: commercial; label: FAM in CE
TCCACGGTCGGTCCCCTTACCACTGGTCCCTTTGTC (ssDNA) [Seq-4650]: binds. CACCTCTCACCCCACGGTTCTGGTCCTTCCCCGACG (ssDNA) [Seq-1280]: binds. ACTCCCACCTTTATTGAGGGCGGTGACGGGTTCCCTC (ssDNA) [Seq-59]: binds. AGGGGGGACACCTAGATTGTTGGCCGTGCGGATACG (ssDNA) [Seq-333]: binds. AGGGGGGACATCTGGAGTGTTGGCCGTGCGGATACG (ssDNA) [Seq-1022]: binds.

Each binder was assayed against SARS-CoV nucleocapsid protein (SARS NP) (SARS-CoV, UniProt P59595 1-422) (assay: not given). Conditions: protein: commercial; label: 5'-FAM in CE (position not restated for aptamers).
GCAGGCAAGGCTCTACTGACCCGTTGCTTGATCGAC (ssDNA) [Seq-7]: binds.

Same assay, conditions: protein: commercial; label: FAM in CE
TCCACGGTCGGTCCCCTTACCACTGGTCCCTTTGTC (ssDNA) [Seq-4650]: binds. CACCTCTCACCCCACGGTTCTGGTCCTTCCCCGACG (ssDNA) [Seq-1280]: binds. ACTCCCACCTTTATTGAGGGCGGTGACGGGTTCCCTC (ssDNA) [Seq-59]: binds. AGGGGGGACACCTAGATTGTTGGCCGTGCGGATACG (ssDNA) [Seq-333]: binds. AGGGGGGACATCTGGAGTGTTGGCCGTGCGGATACG (ssDNA) [Seq-1022]: binds.

What follows are binders tested against SARS-CoV-2 nucleocapsid protein (NP) (SARS-CoV-2 (WT), UniProt P0DTC9 1-419) (assay: CE). Conditions: protein: commercial; label: 5'-FAM in CE (position not restated for aptamers).
GCAGGCAAGGCTCTACTGACCCGTTGCTTGATCGAC (ssDNA) [Seq-7]: binds.

Same assay, conditions: protein: commercial; label: FAM in CE
TCCACGGTCGGTCCCCTTACCACTGGTCCCTTTGTC (ssDNA) [Seq-4650]: binds. CACCTCTCACCCCACGGTTCTGGTCCTTCCCCGACG (ssDNA) [Seq-1280]: binds. ACTCCCACCTTTATTGAGGGCGGTGACGGGTTCCCTC (ssDNA) [Seq-59]: binds. AGGGGGGACACCTAGATTGTTGGCCGTGCGGATACG (ssDNA) [Seq-333]: binds. AGGGGGGACATCTGGAGTGTTGGCCGTGCGGATACG (ssDNA) [Seq-1022]: binds.

What follows are binders tested against HCoV-OC43 nucleocapsid protein (HCoV-OC43, UniProt P33469 1-448) (assay: CE; Kd range for six aptamers 6.57-31.76 nM). Conditions: protein: recombinant; label: 5'-FAM in CE (position not restated for aptamers).
GCAGGCAAGGCTCTACTGACCCGTTGCTTGATCGAC (ssDNA) [Seq-7]: binds.

Same assay, conditions: protein: recombinant; label: FAM in CE
TCCACGGTCGGTCCCCTTACCACTGGTCCCTTTGTC (ssDNA) [Seq-4650]: binds. CACCTCTCACCCCACGGTTCTGGTCCTTCCCCGACG (ssDNA) [Seq-1280]: binds. ACTCCCACCTTTATTGAGGGCGGTGACGGGTTCCCTC (ssDNA) [Seq-59]: binds. AGGGGGGACACCTAGATTGTTGGCCGTGCGGATACG (ssDNA) [Seq-333]: binds. AGGGGGGACATCTGGAGTGTTGGCCGTGCGGATACG (ssDNA) [Seq-1022]: binds.
